Patent US20100086540A1

Experiments:
[1] = target: isolated domain III of sEGFR (sEGFRd3) (UniProt P00533); assay: SPR (BIAcore 3000), sEGFRd3 passed over immobilized Fab11F8, equilibrium analysis
[2] = target: soluble extracellular domain of EGFR (sEGFR) (UniProt P00533); assay: SPR (BIAcore 3000), sEGFR passed over immobilized Fab11F8, equilibrium response, one-site Langmuir fit
[3] = target: soluble extracellular domain of EGFR (sEGFR) (UniProt P00533); assay: SPR competition: Fab11F8 added to 600 nM sEGFR, passed over immobilized EGF

Sequence of antibody 11F8 Fab fragment (VH): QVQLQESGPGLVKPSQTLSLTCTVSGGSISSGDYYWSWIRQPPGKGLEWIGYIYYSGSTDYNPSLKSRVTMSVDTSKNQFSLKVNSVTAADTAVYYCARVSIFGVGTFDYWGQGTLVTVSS
Sequence of antibody 11F8 Fab fragment (VL): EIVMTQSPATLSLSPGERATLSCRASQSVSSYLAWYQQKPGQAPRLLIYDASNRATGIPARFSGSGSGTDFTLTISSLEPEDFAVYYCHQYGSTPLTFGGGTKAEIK

Kd [1]: 1 nM
Kd [2]: 3.3 nM
IC50 [3]: 100 nM
Substance: antibody 11F8 Fab fragment
